Experimental findings from paper PMC10092196 (Human Mutation, 2022) are described below.

Series [1] deals with the molecule itself. The series is described as follows: SEC.
Series [2] concerns the molecule itself. Description: SEC with right-angle light scattering.

B1: full-length wild-type human PUS3 protein (pseudouridine synthase 3) (enzyme, UniProt Q9BZE2 1-481, looked up)
chain: MAYNDTDRNQTEKLLKRVRELEQEVQRLKKEQAKNKEDSNIRENSAGAGKTKRAFDFSAHGRRHVALRIAYMGWGYQGFASQENTNNTIEEKLFEALTKTRLVESRQTSNYHRCGRTDKGVSAFGQVISLDLRSQFPRGRDSEDFNVKEEANAAAEEIRYTHILNRVLPPDIRILAWAPVEPSFSARFSCLERTYRYFFPRADLDIVTMDYAAQKYVGTHDFRNLCKMDVANGVINFQRTILSAQVQLVGQSPGEGRWQEPFQLCQFEVTGQAFLYHQVRCMMAILFLIGQGMEKPEIIDELLNIEKNPQKPQYSMAVEFPLVLYDCKFENVKWIYDQEAQEFNITHLQQLWANHAVKTHMLYSMLQGLDTVPVPCGIGPKMDGMTEWGNVKPSVIKQTSAFVEGVKMRTYKPLMDRPKCQGLESRIQHFVRRGRIEHPHLFHEEETKAKRDCNDTLEEENTNLETPTKRVCVDTEIKSII
In the case of B1, the “stoichiometry N” value in series [1] was found to be 2.

B2: full-length human PUS3 Y71C mutant (enzyme, UniProt Q9BZE2 1-481, looked up)
chain: MAYNDTDRNQTEKLLKRVRELEQEVQRLKKEQAKNKEDSNIRENSAGAGKTKRAFDFSAHGRRHVALRIACMGWGYQGFASQENTNNTIEEKLFEALTKTRLVESRQTSNYHRCGRTDKGVSAFGQVISLDLRSQFPRGRDSEDFNVKEEANAAAEEIRYTHILNRVLPPDIRILAWAPVEPSFSARFSCLERTYRYFFPRADLDIVTMDYAAQKYVGTHDFRNLCKMDVANGVINFQRTILSAQVQLVGQSPGEGRWQEPFQLCQFEVTGQAFLYHQVRCMMAILFLIGQGMEKPEIIDELLNIEKNPQKPQYSMAVEFPLVLYDCKFENVKWIYDQEAQEFNITHLQQLWANHAVKTHMLYSMLQGLDTVPVPCGIGPKMDGMTEWGNVKPSVIKQTSAFVEGVKMRTYKPLMDRPKCQGLESRIQHFVRRGRIEHPHLFHEEETKAKRDCNDTLEEENTNLETPTKRVCVDTEIKSII
Regarding B2, the “stoichiometry N” value in series [2] came out at 2.

B3: full-length human PUS3 D118A mutant (catalytic site) (enzyme, UniProt Q9BZE2 1-481, looked up)
chain: MAYNDTDRNQTEKLLKRVRELEQEVQRLKKEQAKNKEDSNIRENSAGAGKTKRAFDFSAHGRRHVALRIAYMGWGYQGFASQENTNNTIEEKLFEALTKTRLVESRQTSNYHRCGRTAKGVSAFGQVISLDLRSQFPRGRDSEDFNVKEEANAAAEEIRYTHILNRVLPPDIRILAWAPVEPSFSARFSCLERTYRYFFPRADLDIVTMDYAAQKYVGTHDFRNLCKMDVANGVINFQRTILSAQVQLVGQSPGEGRWQEPFQLCQFEVTGQAFLYHQVRCMMAILFLIGQGMEKPEIIDELLNIEKNPQKPQYSMAVEFPLVLYDCKFENVKWIYDQEAQEFNITHLQQLWANHAVKTHMLYSMLQGLDTVPVPCGIGPKMDGMTEWGNVKPSVIKQTSAFVEGVKMRTYKPLMDRPKCQGLESRIQHFVRRGRIEHPHLFHEEETKAKRDCNDTLEEENTNLETPTKRVCVDTEIKSII
B3: in series [1], the binding result is given as “binds”.
